Measurements reported in patent US20150098924A1 (TOPOTARGET SWITZERLAND, published 2015).

T1: Fas receptor (human, UniProt P25445 26-335)
T1 sequence (looked up): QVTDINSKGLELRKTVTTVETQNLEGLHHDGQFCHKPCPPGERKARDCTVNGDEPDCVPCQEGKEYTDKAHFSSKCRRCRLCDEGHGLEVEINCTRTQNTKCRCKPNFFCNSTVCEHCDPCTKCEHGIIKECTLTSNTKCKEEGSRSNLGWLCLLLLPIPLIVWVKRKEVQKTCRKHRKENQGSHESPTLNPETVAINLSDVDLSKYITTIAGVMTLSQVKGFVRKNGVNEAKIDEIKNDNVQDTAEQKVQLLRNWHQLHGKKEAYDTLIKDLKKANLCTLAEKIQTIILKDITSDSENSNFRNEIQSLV


Biological target: T1, Fas receptor
Assay: cell-based or functional assay

Molecule	IC50 (ng/ml), PESMTS survival assay, ARH-77 cells	IC50 (ng/ml), PESMTS survival assay, DOHH2 cells	IC50 (ng/ml), PESMTS survival assay, HL60 (AML-M3) cells	IC50 (ng/ml), PESMTS survival assay, Jurkat cells	IC50 (ng/ml), PESMTS survival assay, K562 cells	IC50 (ng/ml), PESMTS survival assay, NB4 (AML-M3) cells	IC50 (ng/ml), PESMTS survival assay, Namalwa (ALL-L3) cells	IC50 (ng/ml), PESMTS survival assay, RPMI-8226 cells	IC50 (ng/ml), PESMTS survival assay, Raji (ALL-L3) cells	IC50 (ng/ml), PESMTS survival assay, SC-1 cells	IC50 (ng/ml), PESMTS survival assay, U266 cells	IC50 (ng/ml), PESMTS survival assay, OPM2 cells
CH11 (antibody)	> 10000 ng/mL	> 10000 ng/mL	> 10000 ng/mL	6.58 ng/mL	> 10000 ng/mL	> 10000 ng/mL	> 10000 ng/mL	> 10000 ng/mL	15.8 ng/mL	> 10000 ng/mL	> 10000 ng/mL	–
MegaFasL (fusion polypeptide m or hACRP30:hFasL) (ligand) QLFHLQKELAELRESTSQMHTASSLEKQIGHPSPPPEKKELRKVAHLTGKSNSRSMPLEWEDTYGIVLLSGVKYKKGGLVINETGLYFVYSKVYFRGQSCNNLPLSHKVYMRNSKYPQDLVMMEGKMMSYCTTGQMWARSSYLGAVFNLTSADHLYVNVSELSLVNFEESQTFFGLYKL	10.4 ng/mL	1.17 ng/mL	213 ng/mL	0.06 ng/mL	> 10000 ng/mL	16 ng/mL	57 ng/mL	3.57 ng/mL	5.6 ng/mL	> 10000 ng/mL	6.2 ng/mL	2.19 ng/mL
